# Article PMC314469, “Protein Interaction Networks by Proteome Peptide Scanning” (PLoS Biology, 2004)
# T1: Boi1 SH3 (BOI1_YEAST), P38041
# T1 chain: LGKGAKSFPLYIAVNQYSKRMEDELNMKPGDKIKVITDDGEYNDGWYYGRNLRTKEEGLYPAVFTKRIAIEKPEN
# T2: Boi2 SH3 (BOI2_YEAST), P39969
# T2 chain: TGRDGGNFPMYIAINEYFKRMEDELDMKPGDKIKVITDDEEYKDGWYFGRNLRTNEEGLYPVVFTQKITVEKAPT
# T3: Rvs167 SH3 (RV167_YEAST), P39743
# T3 chain: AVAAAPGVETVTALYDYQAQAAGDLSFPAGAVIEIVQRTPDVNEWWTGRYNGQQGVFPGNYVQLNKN
# T4: Yfr024 SH3 (LSB3_YEAST), P43603
# T4 chain: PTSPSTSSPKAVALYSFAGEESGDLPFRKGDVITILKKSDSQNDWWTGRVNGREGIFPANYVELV
# T5: Yhr016c SH3 (YSC84_YEAST), P32793
# T5 chain: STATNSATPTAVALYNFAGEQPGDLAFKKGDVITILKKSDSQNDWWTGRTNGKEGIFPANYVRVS
# Assays:
# Test in all cases: SPOT array
# [1] = target: T1, Boi1 SH3 (BOI1_YEAST), P38041
# [2] = target: T2, Boi2 SH3 (BOI2_YEAST), P39969
# [3] = target: T3, Rvs167 SH3 (RV167_YEAST), P39743
# [4] = target: T4, Yfr024 SH3 (LSB3_YEAST), P43603
# [5] = target: T5, Yhr016c SH3 (YSC84_YEAST), P32793
"normalised SPOT signal, Boehringer light units (BLU); mean over the file's lines of this peptide [1]","normalised SPOT signal, Boehringer light units (BLU); mean over the file's lines of this peptide [2]","normalised SPOT signal, Boehringer light units (BLU); mean over the file's lines of this peptide [3]","normalised SPOT signal, Boehringer light units (BLU); mean over the file's lines of this peptide [4]","normalised SPOT signal, Boehringer light units (BLU); mean over the file's lines of this peptide [5]",Binder
77.1,46.1,24.8,179,203,ELPPTHPIRLGLAL [YDR099W 164-177]
56.8,46,39.4,42.4,160,ELDPISPLKVPLTA [YGR166W 276-289]
26.8,17.5,41.4,667,208,EKLPAIPRKFIVTE [YMR296C 278-291]
21.4,34.7,68,34.4,209,ENAPANPSKALKVK [YHR108W 549-562]
455,26.1,34.8,2200,211,ESLPRTPTKGRSTQ [YPR141C 2-15]
121,15.5,135,41400,14500,EIPPPLPPKIMVHS [YIL156W 528-541]
54.9,90.2,1900,57000,43100,ELPPIKPPRPTSTT [YBL007C 619-632]
394,161,72.6,5120,1840,EKGPRMPSRGRPRP [YPR171W 144-157]
160,34.9,35.7,56.9,86.3,ENYPSPPYKIIILD [YJR068W 127-140]
56.5,83.5,32.9,7910,139,EKFPKLPHKLVHML [YKR024C 336-349]
94,9.5,125,377,100,ENFPIVPLKSVAQD [YAL051W 638-651]
90.2,13.5,15.1,13.7,149,ELLPVVPEKFLIAS [YOR273C 415-428]
764,19.2,88.9,15000,4510,ENVPLYPSRRNIWE [YHR176W 81-94]
59,37.3,220,2140,323,EMIPSSPQRKSVSN [YBR098W 51-64]
85,42.8,28.7,156,0,ENLPPSPVRAVNPL [YPR174C 153-166]
75.6,34.6,59.7,94.1,274,ERDPNAPKKPLTVF [YDR174W 100-113]
34.7,21.5,65.2,244,12.5,EILPQAPAKKVFES [YDR444W 379-392]
65.2,60,38.4,109,333,ELEPQHPLRHKSSL [YER027C 53-66]
125,31.7,64.8,1640,339,ERDPNMPKRPTNAY [YDL002C 88-101]
339,3.6,232,23100,8330,ENKPFKPPRRVGSN [YBR073W 41-54]
364,21.3,63.9,2720,34.7,EILPVKPTKKSSKK [YCL014W 808-821]
69.3,69.2,67.1,12200,5560,EKLPETPDRSKSAS [YLR343W 379-392]
